Measured values as given in patent publication US20210292423A1.

Legend:
[1] = target: Macaca fascicularis CD3ε/δ-Fc fusion protein (Macaca fascicularis) (UniProt Q95LI8); test: SPR Biacore, ratio against human CD3εδ
[2] = target: human CD123 (IL3RA) on cells (human) (UniProt P26951); test: cell-based or functional assay
[3] = target: Macaca fascicularis CD3 (TCR complex) on cyno HSC-F cells (Macaca fascicularis) (UniProt Q95LI5); test: flow cytometry, cyno HSC-F
[4] = target: human CD3 (TCR complex) on primary human T cells or Jurkat cells (human) (UniProt P07766); test: flow cytometry, Jurkat E6-1
human CD3 (TCR complex) on primary human T cells or Jurkat cells (human), sequence (P07766 23-207, one chain of several): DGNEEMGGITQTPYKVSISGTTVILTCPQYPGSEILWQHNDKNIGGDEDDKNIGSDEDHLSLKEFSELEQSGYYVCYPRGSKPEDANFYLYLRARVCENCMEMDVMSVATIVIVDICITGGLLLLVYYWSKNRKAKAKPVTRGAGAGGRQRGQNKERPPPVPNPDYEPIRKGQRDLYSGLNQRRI

Macaca fascicularis CD3 (TCR complex) on cyno HSC-F cells (Macaca fascicularis), sequence (Q95LI5 22-198, one chain of several): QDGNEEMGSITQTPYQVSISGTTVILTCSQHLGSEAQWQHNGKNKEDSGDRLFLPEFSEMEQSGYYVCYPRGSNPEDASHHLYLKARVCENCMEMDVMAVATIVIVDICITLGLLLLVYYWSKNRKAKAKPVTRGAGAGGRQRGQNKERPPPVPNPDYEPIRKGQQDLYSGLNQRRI
human CD123 (IL3RA) on cells (human), sequence (P26951 19-378): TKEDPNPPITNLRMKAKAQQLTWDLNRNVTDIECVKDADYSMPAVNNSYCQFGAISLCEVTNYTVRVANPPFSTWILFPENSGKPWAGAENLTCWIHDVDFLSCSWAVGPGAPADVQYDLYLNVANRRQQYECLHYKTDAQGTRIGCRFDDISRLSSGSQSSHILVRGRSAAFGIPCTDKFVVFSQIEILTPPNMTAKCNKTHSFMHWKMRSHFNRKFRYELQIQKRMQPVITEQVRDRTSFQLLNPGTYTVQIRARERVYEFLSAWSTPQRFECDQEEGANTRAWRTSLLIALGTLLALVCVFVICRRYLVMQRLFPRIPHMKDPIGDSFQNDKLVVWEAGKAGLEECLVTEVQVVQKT
Macaca fascicularis CD3ε/δ-Fc fusion protein (Macaca fascicularis), sequence (chain, as listed by the source mutant, chain 1 of 2): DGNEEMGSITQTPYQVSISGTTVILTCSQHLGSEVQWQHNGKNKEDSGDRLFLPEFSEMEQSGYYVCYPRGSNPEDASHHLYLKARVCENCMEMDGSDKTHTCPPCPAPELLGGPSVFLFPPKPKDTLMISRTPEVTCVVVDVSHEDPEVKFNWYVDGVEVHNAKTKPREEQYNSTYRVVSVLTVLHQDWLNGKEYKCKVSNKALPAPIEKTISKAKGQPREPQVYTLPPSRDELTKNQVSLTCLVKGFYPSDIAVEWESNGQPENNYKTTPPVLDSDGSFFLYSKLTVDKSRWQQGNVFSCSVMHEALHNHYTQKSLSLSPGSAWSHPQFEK
Macaca fascicularis CD3ε/δ-Fc fusion protein (Macaca fascicularis), sequence (Q95LI8 22-105, stated change not applied, chain 2 of 2): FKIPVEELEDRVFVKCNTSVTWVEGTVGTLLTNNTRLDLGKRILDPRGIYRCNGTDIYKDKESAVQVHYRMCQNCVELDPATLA
CODV-Fab 7G3 × I2C (bispecific antibody), sequence (light, part): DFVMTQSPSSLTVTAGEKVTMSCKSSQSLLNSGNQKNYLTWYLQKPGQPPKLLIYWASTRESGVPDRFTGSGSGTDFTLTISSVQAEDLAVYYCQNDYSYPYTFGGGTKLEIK
CODV-Fab 7G3 × I2C (bispecific antibody), sequence (heavy, part): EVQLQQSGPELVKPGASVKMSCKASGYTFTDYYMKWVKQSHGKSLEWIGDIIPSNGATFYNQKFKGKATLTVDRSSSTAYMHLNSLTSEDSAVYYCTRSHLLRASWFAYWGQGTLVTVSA

With SP-34 (antibody) the Ratio KD(cy)/KD(hu) [1] was 5.
In the case of “CODV-Fab 7G3 × I2C (bispecific antibody)”, the Activity EC50 [ng/ml], cytotoxic assay on THP-1 with human T cells [2] is reported as 20 ng/mL.
Substance FN18 (antibody) has a geometric mean of relative fluorescence intensity (rfu) [3] of 1260 rfu and a geometric mean of relative fluorescence intensity (rfu) [4] of 7 rfu.
